One block for each binder: values may come before it. Primed or numbered codes have the meaning given here. Ends that are not written are not given here. Biotin′ = not defined here
Key:
PD-L1 antibody [1] = target: T1, PD-L1 antibody; assay: dissociation ELISA: PD-L1 antibody dilution series on immobilised biotinylated peptide
T1 construct: also called anti-PD-L1

PD-L1 antibody [2] = target: T1, PD-L1 antibody; assay: dissociation ELISA: PD-L1 antibody dilution series on immobilised biotinylated peptide, incubation at pH 5.4
PD-L1 antibody [3] = target: T1, PD-L1 antibody; assay: dissociation ELISA: PD-L1 antibody dilution series on immobilised biotinylated peptide, incubation at pH 6.0
PD-L1 antibody [4] = target: T1, PD-L1 antibody; assay: dissociation ELISA: PD-L1 antibody dilution series on immobilised biotinylated peptide, incubation at pH 7.2
[5] = target: T2, Peptide 15 with C-terminal biotin (Example 13) (not fully specified; cysteine pairing not given here); assay: ELISA, biotinylated Peptide 15 on Neutravidin, Fab titrated at pH 7.4 (Example 13)
T2 peptide: GGPCNQVECHHQFT-{Biotin′}

[6] = target: T3, anti-mouse CTLA-4 antibody (clone 9D9); assay: competition ELISA: 0.3 nM anti-CTLA Ab / 30 min with peptide, then on mouse CTLA-4 (Example 11); competitor mouse CTLA-4
T3 construct: also called 9D9 antibody; anti-CTLA4
Procedure: (§1) Following this incubation the peptide-antibody complexes were transferred to mouse CTLA-4 coated and blocked ELISA plates and incubated further. Following a brief binding period the plates were washed and target bound antibody was detected by either anti-mouse Fc or anti-mouse kappa chain HRP conjugated antibodies using standard TMB-based chromogenic ELISA procedures. The effects of competition were determined by standard IC50 analysis.

[7] = target: T3, anti-mouse CTLA-4 antibody (clone 9D9); assay: competition ELISA: 0.3 nM anti-CTLA Ab / 30 min with peptide, then on mouse CTLA-4 (Example 11)
Procedure: as §1

EC50 (read off the curve) [5]: ~200 nM
B2: anti-mouse CTLA-4 (clone 9D9) Fab fragment (Fab, V domains shown)
VH: EAKLQESGPVLVKPGASVKMSCKASGYTFTDYYMNWVKQSHGKSLEWIGVINPYNGDTSYNQKFKGKATLTVDKSSSTAYMELNSLTSEDSAVYYCARYYGSWFAYWGQGTLITVST
VL: DIVMTQTTLSLPVSLGDQASISCRSSQSIVHSNGNTYLEWYLQKPGQSPKLLIYKVSNRFSGVPDRFSGSGSGTDFTLKISRVEAEDLGVYYCFQGSHVPYTFGGGTKLEIKR
notes: Monovalent Fab fragment of 9D9; also called mCTLA-4 Fab; a-mCTLA-4 Fab

binding result [6]: binds
B3: Peptide 19 (peptide)
peptide: GGCQIHDPHTWHLC

binding result [6]: binds
B6: Peptide 16 (peptide)
peptide: GGCPSLHPQWIHVC

The remaining lines, values behind:

B1: Peptide 20 (peptide)
peptide: QLFYPSTYHIID
modifications: also: biotinylated
notes: chemically synthesized biotinylated peptide
pH 5.4: pH 7.2 EC 50 ratio (PD-L1 antibody [1]): 6.7 | pH 6.0: pH 7.2 EC 50 ratio (PD-L1 antibody [1]): 1.7 | EC50 (PD-L1 antibody [2]): 0.84 nM | EC50 (PD-L1 antibody [3]): 0.21 nM | EC50 (PD-L1 antibody [4]): 0.13 nM

B4: Peptide 29 (peptide)
peptide: GGLCSTFYEPQVDICY
modifications: cysteine pairing not given here; also: biotinylated
notes: as for B1
pH 5.4: pH 7.2 EC 50 ratio (PD-L1 antibody [1]): 6.5 | pH 6.0: pH 7.2 EC 50 ratio (PD-L1 antibody [1]): 2.1 | EC50 (PD-L1 antibody [2]): 1.5 nM | EC50 (PD-L1 antibody [3]): 0.49 nM | EC50 (PD-L1 antibody [4]): 0.23 nM

B5: Peptide 23 (peptide)
peptide: GGHCVDMVDFYQQTCQ
modifications: cysteine pairing not given here; also: biotinylated
notes: Chemically synthesized biotinylated peptide; also called 23 (Control)
pH 5.4: pH 7.2 EC 50 ratio (PD-L1 antibody [1]): 12.9 | pH 6.0: pH 7.2 EC 50 ratio (PD-L1 antibody [1]): 4.3 | binding result [7]: no binding (tested: 50 uM) | EC50 (PD-L1 antibody [2]): 3.9 nM | EC50 (PD-L1 antibody [3]): 1.3 nM | EC50 (PD-L1 antibody [4]): 0.3 nM

B7: Peptide 22 (peptide)
peptide: GGMCHELFYSNLNWCQ
modifications: cysteine pairing not given here; also: biotinylated
notes: as for B1
pH 5.4: pH 7.2 EC 50 ratio (PD-L1 antibody [1]): 7.8 | pH 6.0: pH 7.2 EC 50 ratio (PD-L1 antibody [1]): 1.5 | EC50 (PD-L1 antibody [2]): 0.35 nM | EC50 (PD-L1 antibody [3]): 0.07 nM | EC50 (PD-L1 antibody [4]): 0.045 nM

B8: Peptide 24 (peptide)
peptide: GGCHNKSGLFYHYC
modifications: cysteine pairing not given here; also: biotinylated
notes: as for B1
pH 5.4: pH 7.2 EC 50 ratio (PD-L1 antibody [1]): 6.6 | pH 6.0: pH 7.2 EC 50 ratio (PD-L1 antibody [1]): 2.8 | EC50 (PD-L1 antibody [2]): 1.3 nM | EC50 (PD-L1 antibody [3]): 0.56 nM | EC50 (PD-L1 antibody [4]): 0.2 nM
